# Assay results as given in patent US20110300138A1 (published 2011).
# Experiments:
# Assay in all cases: cell-based or functional assay
# [1] = molecular target: TSHR with Arg109 mutated to Ala, expressed in CHO cells (human) (UniProt P16473)
# [2] = molecular target: TSHR with Asp203 mutated to Ala expressed in CHO cells (human) (UniProt P16473)
# [3] = molecular target: TSHR with Lys58 mutated to Ala expressed in CHO cells (human) (UniProt P16473)
# [4] = molecular target: wild type TSHR (human) (UniProt P16473)
# [5] = molecular target: TSHR with Lys183 mutated to Ala expressed in CHO cells (human) (UniProt P16473)
# [6] = molecular target: wild type TSHR expressed in CHO cells (human) (UniProt P16473)
substance,measurement,setting,value
TSH (ligand),% inhibition of TSH stimulation; TSH (2) control; Experiment 1,[1],0%
same,% inhibition of TSH stimulation; TSH (2) control; Experiment 2,[1],6%
same,Cyclic AMP produced; TSH 3 ng/mL; Experiment 1,[1],32.9 pmol/mL
same,Cyclic AMP produced; TSH 3 ng/mL; Experiment 2,[1],53.4 pmol/mL
same,Cyclic AMP produced; TSH (2); Experiment 1,[1],33.3 pmol/mL
same,Cyclic AMP produced; TSH (2); Experiment 2,[1],50.4 pmol/mL
same,Mutated/wild type (%) of cyclic AMP produced; TSH 3 ng/mL; Experiment 1,[1],49%
same,Mutated/wild type (%) of cyclic AMP produced; TSH 3 ng/mL; Experiment 2,[1],88%
same,Mutated/wild type (%) of cyclic AMP produced; TSH (2); Experiment 1,[1],49%
same,Mutated/wild type (%) of cyclic AMP produced; TSH (2); Experiment 2,[1],74%
same,"Cyclic AMP produced (pmol/mL), 0.01 ng/mL TSH",[2],5.3 pmol/mL
same,"Cyclic AMP produced (pmol/mL), 0.03 ng/mL TSH",[2],7.13 pmol/mL
same,"Cyclic AMP produced (pmol/mL), 0.1 ng/mL TSH",[2],13 pmol/mL
same,"Cyclic AMP produced (pmol/mL), 0.3 ng/mL TSH",[2],33.8 pmol/mL
same,"Cyclic AMP produced (pmol/mL), 1 ng/mL TSH",[2],58.6 pmol/mL
same,"Cyclic AMP produced (pmol/mL), 3 ng/mL TSH",[2],69.3 pmol/mL
same,"Mutated/Wild type (%) of cyclic AMP produced, 0.01 ng/mL TSH",[2],231%
same,"Mutated/Wild type (%) of cyclic AMP produced, 0.03 ng/mL TSH",[2],200%
same,"Mutated/Wild type (%) of cyclic AMP produced, 0.1 ng/mL TSH",[2],154%
same,"Mutated/Wild type (%) of cyclic AMP produced, 0.3 ng/mL TSH",[2],128%
same,"Mutated/Wild type (%) of cyclic AMP produced, 1 ng/mL TSH",[2],89%
same,"Mutated/Wild type (%) of cyclic AMP produced, 3 ng/mL TSH",[2],90%
same,% inhibition of TSH stimulation; TSH (2); Experiment 1,[3],0%
same,% inhibition of TSH stimulation; TSH (2); Experiment 2,[3],1%
same,Cyclic AMP produced; TSH 3 ng/mL; Experiment 1,[3],78.5 pmol/mL
same,Cyclic AMP produced; TSH 3 ng/mL; Experiment 2,[3],96.8 pmol/mL
same,Cyclic AMP produced; TSH (2); Experiment 1,[3],85.2 pmol/mL
same,Cyclic AMP produced; TSH (2); Experiment 2,[3],95.8 pmol/mL
same,Mutated/wild type (%) of cyclic AMP produced; TSH 3 ng/mL; Experiment 1,[3],114%
same,Mutated/wild type (%) of cyclic AMP produced; TSH 3 ng/mL; Experiment 2,[3],99%
same,Mutated/wild type (%) of cyclic AMP produced; TSH (2); Experiment 1,[3],115%
same,Mutated/wild type (%) of cyclic AMP produced; TSH (2); Experiment 2,[3],94%
same,"% inhibition of TSH stimulation, TSH (2) run at the end of assay, wild type TSHR",[4],0%
same,"Cyclic AMP produced (mean of duplicate), TSH 3 ng/mL",[4],88 pmol/mL
same,"Cyclic AMP produced (pmol/mL), TSH 3 ng/mL, wild type TSHR",[4],101 pmol/mL
same,"Cyclic AMP produced (pmol/mL), TSH (2) 3 ng/mL run at the end of assay, wild type TSHR",[4],131 pmol/mL
same,"Cyclic AMP produced, TSH 0.01 ng/mL, Experiment 1",[4],1.22 pmol/mL
same,"Cyclic AMP produced, TSH 0.01 ng/mL, Experiment 2",[4],2.02 pmol/mL
same,"Cyclic AMP produced, TSH 0.03 ng/mL, Experiment 1",[4],1.85 pmol/mL
same,"Cyclic AMP produced, TSH 0.03 ng/mL, Experiment 2",[4],1.96 pmol/mL
same,"Cyclic AMP produced, TSH 0.1 ng/mL, Experiment 1",[4],4.89 pmol/mL
same,"Cyclic AMP produced, TSH 0.1 ng/mL, Experiment 2",[4],4.49 pmol/mL
same,"Cyclic AMP produced, TSH 0.3 ng/mL, Experiment 1",[4],17.4 pmol/mL
same,"Cyclic AMP produced, TSH 0.3 ng/mL, Experiment 2",[4],13.5 pmol/mL
same,"Cyclic AMP produced, TSH 1 ng/mL, Experiment 1",[4],52.9 pmol/mL
same,"Cyclic AMP produced, TSH 1 ng/mL, Experiment 2",[4],43.2 pmol/mL
same,Cyclic AMP produced; TSH 3 ng/mL; Experiment 1,[4],70.6 pmol/mL
same,Cyclic AMP produced; TSH 3 ng/mL; Experiment 2,[4],84.8 pmol/mL
same,"Cyclic AMP produced (pmol/mL), 0.01 ng/mL TSH, Experiment 1",[5],4.95 pmol/mL
same,"Cyclic AMP produced (pmol/mL), 0.01 ng/mL TSH, Experiment 2",[5],3.73 pmol/mL
same,"Cyclic AMP produced (pmol/mL), 0.03 ng/mL TSH, Experiment 1",[5],6.94 pmol/mL
same,"Cyclic AMP produced (pmol/mL), 0.03 ng/mL TSH, Experiment 2",[5],5.37 pmol/mL
same,"Cyclic AMP produced (pmol/mL), 0.1 ng/mL TSH, Experiment 1",[5],13 pmol/mL
same,"Cyclic AMP produced (pmol/mL), 0.1 ng/mL TSH, Experiment 2",[5],10.1 pmol/mL
same,"Cyclic AMP produced (pmol/mL), 0.3 ng/mL TSH, Experiment 1",[5],35 pmol/mL
same,"Cyclic AMP produced (pmol/mL), 0.3 ng/mL TSH, Experiment 2",[5],27.8 pmol/mL
same,"Cyclic AMP produced (pmol/mL), 1 ng/mL TSH, Experiment 1",[5],57.2 pmol/mL
same,"Cyclic AMP produced (pmol/mL), 1 ng/mL TSH, Experiment 2",[5],55.8 pmol/mL
same,"Cyclic AMP produced (pmol/mL), 3 ng/mL TSH, Experiment 1",[5],69.2 pmol/mL
same,"Cyclic AMP produced (pmol/mL), 3 ng/mL TSH, Experiment 2",[5],72.2 pmol/mL
same,"Mutated/Wild type (%) of cyclic AMP produced, 0.01 ng/mL TSH, Experiment 1",[5],275%
same,"Mutated/Wild type (%) of cyclic AMP produced, 0.01 ng/mL TSH, Experiment 2",[5],287%
same,"Mutated/Wild type (%) of cyclic AMP produced, 0.03 ng/mL TSH, Experiment 1",[5],177%
same,"Mutated/Wild type (%) of cyclic AMP produced, 0.03 ng/mL TSH, Experiment 2",[5],179%
same,"Mutated/Wild type (%) of cyclic AMP produced, 0.1 ng/mL TSH, Experiment 1",[5],146%
same,"Mutated/Wild type (%) of cyclic AMP produced, 0.1 ng/mL TSH, Experiment 2",[5],151%
same,"Mutated/Wild type (%) of cyclic AMP produced, 0.3 ng/mL TSH, Experiment 1",[5],106%
same,"Mutated/Wild type (%) of cyclic AMP produced, 0.3 ng/mL TSH, Experiment 2",[5],106%
same,"Mutated/Wild type (%) of cyclic AMP produced, 1 ng/mL TSH, Experiment 1",[5],75%
same,"Mutated/Wild type (%) of cyclic AMP produced, 1 ng/mL TSH, Experiment 2",[5],82%
same,"Mutated/Wild type (%) of cyclic AMP produced, 3 ng/mL TSH, Experiment 1",[5],80%
same,"Mutated/Wild type (%) of cyclic AMP produced, 3 ng/mL TSH, Experiment 2",[5],103%
same,"% inhibition of TSH stimulation, wild type TSHR; TSH (2) (run at the end of assay)",[6],0%
same,% inhibition of TSH stimulation; TSH (2),[6],0%
same,"% inhibition of TSH stimulation; TSH (2) (run at the end of assay, against the first TSH sample); Experiment 1",[6],0%
same,"% inhibition of TSH stimulation; TSH (2) (run at the end of assay, against the first TSH sample); Experiment 2",[6],0%
same,"% inhibition of TSH stimulation; TSH (2), run at the end of assay",[6],0.2%
same,% inhibition of TSH stimulation; TSH (2); Experiment 1,[6],0%
same,% inhibition of TSH stimulation; TSH (2); Experiment 2,[6],0%
same,"Cyclic AMP produced (pmol/mL), 0.01 ng/mL TSH",[6],2.29 pmol/mL
same,"Cyclic AMP produced (pmol/mL), 0.01 ng/mL TSH, Experiment 1",[6],1.8 pmol/mL
same,"Cyclic AMP produced (pmol/mL), 0.01 ng/mL TSH, Experiment 2",[6],1.3 pmol/mL
same,"Cyclic AMP produced (pmol/mL), 0.03 ng/mL TSH",[6],3.56 pmol/mL
same,"Cyclic AMP produced (pmol/mL), 0.03 ng/mL TSH, Experiment 1",[6],3.91 pmol/mL
same,"Cyclic AMP produced (pmol/mL), 0.03 ng/mL TSH, Experiment 2",[6],3 pmol/mL
same,"Cyclic AMP produced (pmol/mL), 0.1 ng/mL TSH",[6],8.45 pmol/mL
same,"Cyclic AMP produced (pmol/mL), 0.1 ng/mL TSH, Experiment 1",[6],8.92 pmol/mL
same,"Cyclic AMP produced (pmol/mL), 0.1 ng/mL TSH, Experiment 2",[6],6.69 pmol/mL
same,"Cyclic AMP produced (pmol/mL), 0.3 ng/mL TSH",[6],26.3 pmol/mL
same,"Cyclic AMP produced (pmol/mL), 0.3 ng/mL TSH, Experiment 1",[6],33 pmol/mL
same,"Cyclic AMP produced (pmol/mL), 0.3 ng/mL TSH, Experiment 2",[6],26.2 pmol/mL
same,"Cyclic AMP produced (pmol/mL), 1 ng/mL TSH",[6],65.7 pmol/mL
same,"Cyclic AMP produced (pmol/mL), 1 ng/mL TSH, Experiment 1",[6],76.1 pmol/mL
same,"Cyclic AMP produced (pmol/mL), 1 ng/mL TSH, Experiment 2",[6],68.1 pmol/mL
same,"Cyclic AMP produced (pmol/mL), 3 ng/mL TSH",[6],77.1 pmol/mL
